Source: paper PMC11001878, “Engineering an artificial catch bond using mechanical anisotropy” (Nature Communications, 2024)

Columns and labels:
[1] = target: DocG-FLN-ELP-ybbr (Ruminococcus champanellensis); assay: AFM single-molecule force spectroscopy; constant pulling speed (100, 400, 800, 3200 nm/s); both partners tethered through ybbr tags, CohE on the cantilever and DocG on the glass; dwell 200 ms; TBS Ca buffer (25 mM Tris, 72 mM NaCl, 1 mM CaCl2, pH 7.2); zero-force off rate k0 from a Bell-Evans fit, one for each unbinding pathway
[2] = target: ybbr-ELP-FLN-DocG (Ruminococcus champanellensis); assay: as above
[3] = target: T1, DocG A77C mutant protein labeled with Cy3b (Ruminococcus champanellensis, A77C, Cy3b (maleimide-conjugated) on the cysteine at 77); assay: MST; 20 nM Cy3b-labelled DocG A77C mixed with a series of CohE, 16 samples, 0.0763 nM to 2.5 µM; Nanotemper Monolith NT.115; conditions: both partners purified
T1 chain: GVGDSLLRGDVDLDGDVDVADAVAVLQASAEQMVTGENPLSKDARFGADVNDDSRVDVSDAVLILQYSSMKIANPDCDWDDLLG

CohE-FLN-ELP-ybbr (domain or fragment) gave a log(k0), high force pathway [1] of -7, a log(k0), low force pathway [1] of -31 and a log(k0), high force pathway [2] of -7. The log(k0), low force pathway [2] was -9.

Molecule ybbr-ELP-FLN-CohE (domain or fragment) has a log(k0), single pathway [2] of -4.2.

B1: CohE wild-type (domain or fragment)
chain: LSMDQKFAEPGETVEIALNLENFDASWTGLEFLVNYDPKLEVALDGAGDIDYSYGDAIGAMGKKISVGGAISKDLTADGLKGFAFAWGTATAISGNGQLGVFKFTVPADAQPGDEFPVNLTVNVGSFIDANKENIPFETVNGWIKI
B1 showed a Kd [3] of 0.014 ± 0.004 µM.

B2: CohE F13AzF-Fgβ (domain or fragment)
chain 1: B1 chain
chain 2: NEEGFFSARGHRPLDGSWSHPQFEKGSGSC
modifications: azido-phenylalanine (AzF) at 13, covalently conjugated by the azide-DBCO click reaction with the Fgβ-StrepTag-DBCO peptide | C-terminal cysteine bearing DBCO, linked to the azide of AzF13 of the CohE chain
With B2 the Kd [3] was 0.04 ± 0.008 µM.

B3: CohE K87AzF-Fgβ (domain or fragment)
chain 1: B1 chain
chain 2: B2 chain 2
modifications: azido-phenylalanine (AzF) at 87, covalently conjugated by the azide-DBCO click reaction with the Fgβ-StrepTag-DBCO peptide | C-terminal cysteine bearing DBCO, linked to the azide of AzF87 of the CohE chain
B3 gave a Kd [3] of 0.019 ± 0.01 µM.
